Reversible cross-linking and dissolution cycles (small amplitude oscillatory shear rheology, 660 nm / 740 nm) data for one substance are collected here from patent publication EP3919091A1.

The target in the assay is PIF6-SnoopCatcher (SnoopCatcher-mCherry-PIF6(A. thaliana, amino acids: 1-100, Cys9Ser, Cys10Ser)-His6), coupled to 8-arm PEG-SnoopTag (A. thaliana) (UniProt Q8L5W7). In words: cell-based or functional assay.
UniProt Q8L5W7, sequence (Q8L5W7 other isoform, or with tags, fused parts or gaps C10S C10S): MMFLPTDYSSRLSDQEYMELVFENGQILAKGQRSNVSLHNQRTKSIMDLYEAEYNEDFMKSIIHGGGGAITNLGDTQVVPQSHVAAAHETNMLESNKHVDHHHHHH

Regarding “PhyB-SpyCatcher (PhyB(A. thaliana, amino acids: 1-651)-SpyCatcher-His6), coupled to 8-arm PEG-SpyTag (from UniProt P14713 1-651)”, the reversible cross-linking and dissolution cycles (small amplitude oscillatory shear rheology, 660 nm / 740 nm) is 5 times.
